According to the supplement of paper PMC10567573:

B1: COX4I1 (parent)
chain: VAHVKHLSASQKALKEKEKASWSS
B2: SMTNL2 (parent)
chain: AFTMAENLANCERLIEVEDMMVMG

Variants of: B1
Experiment: protein stability index of a GFP-peptide fusion (GPS, HEK-293T) (PSI 1-6); higher = more stable
Details: c terminus: a fixed tail appended
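Also: lentivirally expressed fusions sorted by FACS into six bins by GFP to DsRed ratio, PSI derived from sequencing read proportions per bin multiplied by bin number.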

Protein stability index: each site, then its substitutions
H3: D 4.11; A 3.44; K 3.16; G 3.22; E 4.11; C 2.75; F 2.52; L 2.6; I 2.58; M 3.43
V1: S 3.73; E 3.79; A 3.05; C 3.06; R 3.83; K 3.57; Q 4.05; N 3.96; W 2.41; Y 2.7; L 2.95; P 3.53; T 4.03; F 2.34; H 3.25; G 4.06; M 3.05; I 3.35; D 3.98
A2: D 3.6; P 3.77; G 3.29; T 3.86; C 3.44; S 3.25; W 2.92; F 2.23; Y 2.3; I 2.29; Q 3.46; N 2.81; L 3.38; K 3.02; H 3.72; M 3.19; R 2.77; V 2.72; E 3.77

Variants of: B2
Experiment: as above
Details: c terminus: a fixed tail appended

Protein stability index: each site, then its substitutions
M23: Y 1.88; L 1.89; Q 3.21; T 1.8; D 3.57; E 3.69; S 2.69; W 2.1; R 1.97; H 2.24; I 1.47; F 1.54; C 2.09; V 2.38; G 1.7; K 2.8; P 2; N 2.97; A 2.61
E18: Q 2.18; W 1.02; P 3.06; K 2.03; R 2.67; Y 3.52; L 2.22; G 2.52; H 2.85; S 2.01; N 3.43; M 1.97; I 1.58
G24: A 2.03; I 1.64; E 2.93; N 2.45; H 1.59; D 2.33; Y 1.27; Q 2.71; T 1.68; M 1.96; F 2.22; P 2.07; V 1.03; C 1.52; K 2.31; L 1.74; R 2.47; S 2
M20: W 2.51; A 2.42; S 2.27; D 4.75; Y 1.72; H 2.98; I 2.03; G 2.47; K 2.91; L 1.9; C 2.74; Q 2.72; E 4.02; N 3.03; V 2.68; P 3.77; T 3.4; R 2.16
D19: W 4.57; G 2.52; Q 2.06; T 1.94; A 2.36; K 3.26; S 1.62; Y 2.48; H 1.28; P 1.71; E 1.48; R 1.39; N 2.63; F 2.37
V22: C 2.19; L 2.18; Q 2.82; A 2.05; G 2.54; D 2.55; I 1.78; E 3.18; P 2.65; N 2.44; H 1.85; T 2.25; R 2.46; W 1.77; M 2.19; K 2.87; Y 2.07; S 1.99
M21: R 2.23; G 2.12; I 1.98; V 2.18; Y 2.22; E 4.11; P 3.27; N 3.13; D 3.83; S 2.65; C 2.14; Q 3; T 2.68; A 2.37; L 2.39; H 3.02; F 2.56; K 2.95; W 1.9
